Data reported in patent US5607850A, “Enzyme from microbial source: phthalyl amidase” (Eli Lilly and Company, priority 1995, dated 1997).

Key:
[1] = Phthalyl amidase specific activity with chromogenic substrate (II) during purification (Tables 2 and 3); format: biochemical
Protocol: The assay reaction mixture (1 ml) consisted of 0.3 μmol of the chromogenic substrate (II) and 0.001-0.5 μg of enzyme preparation in 50 mM potassium phosphate buffer, pH 8.0 (buffer A). The enzymatic reaction was conducted at 30° C. for 10 minutes and the appearance of product was monitored at 380 nm (or 430 nm). The amount of substrate hydrolyzed was calculated from a standard curve of the amine product.
The phthalyl amidase activity reported in Table 2 was determined using the chromogenic substrate as in Example 3. A typical reaction mixture in a total volume of 1 ml contained 0.2 mg of the chromogenic substrate and an aliquot of phthalyl amidase in buffer A. The enzymatic reaction was conducted at 30° C. for 10-15 min. Formation of the reaction product was monitored with a spectrophotometer at 430 nm (or 380 nm) and quantitated from a standard curve of the product.
The concentrated and diafiltered Super-Q mainstream was applied to a hydroxylapatite column (3.2×40 cm) equilibrated in buffer A. After washing the column with this buffer, phthalyl amidase was eluted using a linear gradient of 0-500 mM phosphate buffer, pH 8.0. Fractions were assayed according to the chromogenic substrate method (see Example 3) and the active fractions were pooled (1 L) and concentrated (400 ml).

[2] = Effect of pH on phthalyl amidase activity; format: biochemical
Protocol: The effect of pH on the reaction rate of the analytical scale purified enzyme was determined using phthalamido carbacephem (III) as substrate. [drawing 5]
A typical reaction mixture consisted of 1 ml total volume and contained 0.1 mM III, 0.1 μM phthalyl amidase in 50 mM potassium phosphate buffer (pH 5.5-9.0) at 32° C. for 20 minutes. The reactions were stopped by the addition of 1 ml methanol. After removal of precipitate by centrifugation, an aliquot of the supernatant fraction (typically 30 μl) was monitored for the beta-lactam nucleus and phthalic acid by HPLC using a Zorbax C8 column (0.46×15 cm; MacMod Analytical Inc., Chadds Ford, Pa.). The two reaction products were eluted by a mobile phase constructed as continuous mixed gradients from (a) 1% ACN (acetonitrile)/0.2% TFA (trifluoroacetic acid) and (b) 80% ACN/0.2% TFA as follows: 1) 0% (b), 3min; 2) 0-50% (b), 0.5 min; 3) 50-100% (b), 3 min; 4) 100% (b), 2.5 min; 5) 100-1% (b), 0.1 min; and 6) 0% (b), 5 min. At a flow rate of 1.5 ml/min, retention times of the beta-lactam nucleus and phthalic acid, as measured at 254 nm, were 2.3 and 7.2 min, respectively.

[3] = Optimum reaction temperature of phthalyl amidase; format: biochemical
Protocol: Test reactions were carried out similar to Example 5 except that all incubations were performed in 50 mM potassium phosphate buffer at pH 8.2.Solutions of the substrate were pre-incubated for 5 minutes at temperatures between 2° and 60° C. The enzymatic reaction was initiated by the addition of phthalyl amidase and stopped by the addition of 1 ml methanol. Specific activity of the enzyme was determined by monitoring the hydrolysis of III by HPLC as in Example 5.

[4] = Optimum salt concentration for phthalyl amidase; format: biochemical; conditions: for Specific Activity: pH 8.2, 32° C.
Protocol: Test reactions were carried out similar to Example 6 except that buffer concentrations ranging from 10 to 200 mM at 32° C. were examined. All other conditions and analyses were the same.

[5] = Stability of phthalyl amidase: effect of ionic strength and pH; format: physicochemical
Protocol: The stability of phthalyl amidase at pH values ranging from 6-9 was determined as described in Example 5 at 30° C. in both 20 and 200 mM potassium phosphate buffer. […] In 200 mM buffer, the enzyme retained at least 80% of its activity for 100 hours irrespective of the pH of the incubating medium.

[6] = Temperature stability of phthalyl amidase; format: physicochemical; conditions: pH 8.2; for enzyme activity retained: 48 hours
Protocol: The phthalyl amidase enzyme was also tested for stability at varying temperature. The enzyme was incubated at pH 8.2 in the temperature range of 4°-50° C. for 48 hours in 50 and 200 mM phosphate buffer. […] In 200 mM buffer, 80% of the enzyme activity was retained in temperatures up to 35° C. and 30% of the enzyme activity was retained after 48 hours incubation at 40° C.

[7] = Isoelectric focusing of phthalyl amidase; format: physicochemical
Protocol: The molecular weight of the phthalyl amidase was determined to be 49,000 by electrospray mass spectrometry. The enzyme is monomeric with an isoelectric point estimated by isoelectric focusing to be pH 5.5.

B1: phthalyl amidase: specific enzyme which readily removes the phthalyl moiety from phthalyl-containing amides, from Xanthobacter agilis (protein)
chain: QAPSVHQHVAFTEEIGDLPDGSSYMIRVPENWNGVLIRDLDLVSGTSNSNAARYETMLKEGFAVAGTARHPLRQWQYDPAHEIENLNHVLDTFEENYGSPERVIQYGCSGGAHVSLAVAEDFSDRVDGSVALAAHTPVWIMNSFLDGWFSLQSLIGEYYVEAGHGPLSDLAITKLPNDGSSNSSGHGMEGDLPAAWRNAFTAANATPEGRARMALAFALGQWSPWLADNTPQPDLDDPEAIADSVYESAMRLAGSPGGEARIMFENAARGQQLSWNDDIDYADFWENSNPAMKSAVQELYDTAGLDLQSDIETVNSQPRIEASQYALDYWNTPGRNVIGDPEVPVLRLHMIGDYQIPYSLVQGYSDLISENNNDDLYRTAFVQSTGHCNFTAAESSAAIEVMMQRLDTGEWPSTEPDDLNAIAEASNTGTEARFMALDGWEIPEYNRTWKPE
Spec. Act. ([1]; Table 2, Ammonium Sulfate: 67-97% cut): 1.547 Units/mg
Spec. Act. ([1]; Table 2, Crude Extract): 0.063 Units/mg
Spec. Act. ([1]; Table 2, Hydroxylapatite): 5.52 Units/mg
Spec. Act. ([1]; Table 2, Mono P): 7.2 Units/mg
Spec. Act. ([1]; Table 2, Phenyl-Sepharose): 2.505 Units/mg
Spec. Act. ([1]; Table 2, Q Sepharose): 1.214 Units/mg
Spec. Act. ([1]; Table 3 (preparative), Crude Extract): 0.8 Units/mg
Spec. Act. ([1]; Table 3 (preparative), Hydroxylapatite): 9.0 Units/mg
Spec. Act. ([1]; Table 3 (preparative), Super-Q): 3.0 Units/mg
Reactive pH range [2]: 5.5 to 9.0 pH
optimum pH [2]: 8.0±0.4 pH
Optimal pH range for enzyme activity ([2]; 32° C., 50 mM potassium phosphate): ≥ 7.8 pH
Specific Activity ([2]; pH 7.0, 32° C.): 125.4 μmol/min/μmol enzyme
Specific Activity ([2]; pH 7.2, 32° C.): 130.4 μmol/min/μmol enzyme
Specific Activity ([2]; pH 7.4, 32° C.): 155.2 μmol/min/μmol enzyme
Specific Activity ([2]; pH 7.6, 32° C.): 172.5 μmol/min/μmol enzyme
Specific Activity ([2]; pH 7.8, 32° C.): 184.2 μmol/min/μmol enzyme
Specific Activity ([2]; pH 8.0, 32° C.): 195.3 μmol/min/μmol enzyme
Specific Activity ([2]; pH 8.2, 32° C.): 201.2 μmol/min/μmol enzyme
Specific Activity ([2]; pH 8.4, 32° C.): 208.0 μmol/min/μmol enzyme
Specific Activity ([2]; pH 8.6, 32° C.): 181.7 μmol/min/μmol enzyme
Specific Activity ([2]; pH 8.8, 32° C.): 185.1 μmol/min/μmol enzyme
Specific Activity ([2]; pH 9.0, 32° C.): 33.1 μmol/min/μmol enzyme
enzyme activity outside temperature range ([3]; below 10° C. and above 50° C., pH 8.2): Little enzyme activity
temperature of maximum reaction rate ([3]; pH 8.2, 50 mM potassium phosphate): 34 °C
effect of high salt concentration on specific activity ([4]; 10 to 200 mM buffer): markedly improved the specific activity
Specific Activity ([4]; K Phosphate 10 mM): 148 μmol/min/μmol enzyme
Specific Activity ([4]; K Phosphate 50 mM): 300 μmol/min/μmol enzyme
Specific Activity ([4]; K Phosphate 100 mM): 350 μmol/min/μmol enzyme
Specific Activity ([4]; K Phosphate 200 mM): 360 μmol/min/μmol enzyme
Specific Activity ([4]; NH4 Acetate 10 mM): 25 μmol/min/μmol enzyme
Specific Activity ([4]; NH4 Acetate 50 mM): 50 μmol/min/μmol enzyme
Specific Activity ([4]; NH4 Acetate 100 mM): 75 μmol/min/μmol enzyme
Specific Activity ([4]; NH4 Acetate 200 mM): 100 μmol/min/μmol enzyme
Specific Activity ([4]; Tris-HCl 10 mM): 73 μmol/min/μmol enzyme
Specific Activity ([4]; Tris-HCl 50 mM): 230 μmol/min/μmol enzyme
Specific Activity ([4]; Tris-HCl 100 mM): 275 μmol/min/μmol enzyme
Specific Activity ([4]; Tris-HCl 200 mM): 300 μmol/min/μmol enzyme
Optimum ionic strength [5]: ≥ 200 mM
ionic strength that enhances pH and temperature stability [5]: above 20 mM
optimum stability pH [5]: 8.0±0.4 pH
pH range of stability [5]: 6-9 pH
enzyme activity lost ([5]; 20 mM potassium phosphate, within 2 hours, 30° C., any pH 6-9): all enzyme activity as lost
enzyme activity retained ([5]; 200 mM potassium phosphate, 100 hours, 30° C., pH 6-9): at least 80%
enzyme activity lost ([6]; 50 mM phosphate, above 40° C., within 48 hours): all enzyme activity was lost
enzyme activity retained ([6]; 50 mM phosphate, below 25° C.): 90%
enzyme activity retained ([6]; 200 mM phosphate, 40° C.): 30%
isoelectric point [7]: ~5.5 pH
